Reference: PMC11009412, “Pathogenic mutations of human phosphorylation sites affect protein–protein interactions” (Nature Communications, 2024)

B1: NOL8 (protein, UniProt Q76FK4 1-1167, looked up)
Nucleolar protein 8: MKVNRETKRLYVGGLSQDISEADLQNQFSRFGEVSDVEIITRKDDQGNPQKVFAYINISVAEADLKKCMSVLNKTKWKGGTLQIQLAKESFLHRLAQEREAAKAKKEESTTGNANLLEKTGGVDFHMKAVPGTEVPGHKNWVVSKFGRVLPVLHLKNQHKRKIIKYDPSKYCHNLKKIGEDFSNTIPISSLTWELEGGNDPMSKKRRGEFSDFHGPPKKIIKVQKDESSTGSLAMSTRPRRVIERPPLTQQQAAQKRTCDSITPSKSSPVPVSDTQKLKNLPFKTSGLETAKKRNSISDDDTDSEDELRMMIAKEENLQRTTQPSINESESDPFEVVRDDFKSGVHKLHSLIGLGIKNRVSCHDSDDDIMRNDREYDSGDTDEIIAMKKNVAKVKNSTEFSQMEKSTKKTSFKNRENCELSDHCIKLQKRKSNVESALSHGLKSLNRKSPSHSSSSEDADSASELADSEGGEEYNAMMKNCLRVNLTLADLEQLAGSDLKVPNEDTKSDGPETTTQCKFDRGSKSPKTPTGLRRGRQCIRPAEIVASLLEGEENTCGKQKPKENNLKPKFQAFKGVGCLYEKESMKKSLKDSVASNNKDQNSMKHEDPSIISMEDGSPYVNGSLGEVTPCQHAKKANGPNYIQPQKRQTTFESQDRKAVSPSSSEKRSKNPISRPLEGKKSLSLSAKTHNIGFDKDSCHSTTKTEASQEERSDSSGLTSLKKSPKVSSKDTREIKTDFSLSISNSSDVSAKDKHAEDNEKRLAALEARQKAKEVQKKLVHNALANLDGHPEDKPTHIIFGSDSECETEETSTQEQSHPGEEWVKESMGKTSGKLFDSSDDDESDSEDDSNRFKIKPQFEGRAGQKLMDLQSHFGTDDRFRMDSRFLETDSEEEQEEVNEKKTAEEEELAEEKKKALNVVQSVLQINLSNSTNRGSVAAKKFKDIIHYDPTKQDHATYERKRDDKPKESKAKRKKKREEAEKLPEVSKEMYYNIAMDLKEIFQTTKYTSEKEEGTPWNEDCGKEKPEEIQDPAALTSDAEQPSGFTFSFFDSDTKDIKEETYRVETVKPGKIVWQEDPRLQDSSSEEEDVTEETDHRNSSPGEASLLEKETTRFFFFSKNDERLQGSDLFWRGVGSNMSRNSWEARTTNLRMDCRKKHKDAKRKMKPK
B2: SUGP1 (protein, UniProt Q8IWZ8 1-645, looked up)
SURP and G-patch …: MSLKMDNRDVAGKANRWFGVAPPKSGKMNMNILHQEELIAQKKREIEAKMEQKAKQNQVASPQPPHPGEITNAHNSSCISNKFANDGSFLQQFLKLQKAQTSTDAPTSAPSAPPSTPTPSAGKRSLLISRRTGLGLASLPGPVKSYSHAKQLPVAHRPSVFQSPDEDEEEDYEQWLEIKVSPPEGAETRKVIEKLARFVAEGGPELEKVAMEDYKDNPAFAFLHDKNSREFLYYRKKVAEIRKEAQKSQAASQKVSPPEDEEVKNLAEKLARFIADGGPEVETIALQNNRENQAFSFLYEPNSQGYKYYRQKLEEFRKAKASSTGSFTAPDPGLKRKSPPEALSGSLPPATTCPASSTPAPTIIPAPAAPGKPASAATVKRKRKSRWGPEEDKVELPPAELVQRDVDASPSPLSVQDLKGLGYEKGKPVGLVGVTELSDAQKKQLKEQQEMQQMYDMIMQHKRAMQDMQLLWEKAVQQHQHGYDSDEEVDSELGTWEHQLRRMEMDKTREWAEQLTKMGRGKHFIGDFLPPDELEKFMETFKALKEGREPDYSEYKEFKLTVENIGYQMLMKMGWKEGEGLGSEGQGIKNPVNKGTTTVDGAGFGIDRPAELSKEDDEYEAFRKRMMLAYRFRPNPLNNPRRPYY
B3: PPP1R10 (protein, UniProt Q96QC0 1-940, looked up)
Serine/threonine-protein …: MGSGPIDPKELLKGLDSFLNRDGEVKSVDGISKIFSLMKEARKMVSRCTYLNILLQTRSPEILVKFIDVGGYKLLNNWLTYSKTTNNIPLLQQILLTLQHLPLTVDHLKQNNTAKLVKQLSKSSEDEELRKLASVLVSDWMAVIRSQSSTQPAEKDKKKRKDEGKSRTTLPERPLTEVKAETRAEEAPEKKREKPKSLRTTAPSHAKFRSTGLELETPSLVPVKKNASTVVVSDKYNLKPIPLKRQSNVAAPGDATPPAEKKYKPLNTTPNATKEIKVKIIPPQPMEGLGFLDALNSAPVPGIKIKKKKKVLSPTAAKPSPFEGKTSTEPSTAKPSSPEPAPPSEAMDADRPGTPVPPVEVPELMDTASLEPGALDAKPVESPGDPNQLTRKGRKRKSVTWPEEGKLREYFYFELDETERVNVNKIKDFGEAAKREILSDRHAFETARRLSHDNMEEKVPWVCPRPLVLPSPLVTPGSNSQERYIQAEREKGILQELFLNKESPHEPDPEPYEPIPPKLIPLDEECSMDETPYVETLEPGGSGGSPDGAGGSKLPPVLANLMGSMGAGKGPQGPGGGGINVQEILTSIMGSPNSHPSEELLKQPDYSDKIKQMLVPHGLLGPGPIANGFPPGGPGGPKGMQHFPPGPGGPMPGPHGGPGGPVGPRLLGPPPPPRGGDPFWDGPGDPMRGGPMRGGPGPGPGPYHRGRGGRGGNEPPPPPPPFRGARGGRSGGGPPNGRGGPGGGMVGGGGHRPHEGPGGGMGNSSGHRPHEGPGGGMGSGHRPHEGPGGSMGGGGGHRPHEGPGGGISGGSGHRPHEGPGGGMGAGGGHRPHEGPGGSMGGSGGHRPHEGPGHGGPHGHRPHDVPGHRGHDHRGPPPHEHRGHDGPGHGGGGHRGHDGGHSHGGDMSNRPVCRHFMMKGNCRYENNCAFYHPGVNGPPLP
B4: NACC1 (protein, UniProt Q96RE7 1-527, looked up)
Nucleus accumbens-associated …: MAQTLQMEIPNFGNSILECLNEQRLQGLYCDVSVVVKGHAFKAHRAVLAASSSYFRDLFNNSRSAVVELPAAVQPQSFQQILSFCYTGRLSMNVGDQFLLMYTAGFLQIQEIMEKGTEFFLKVSSPSCDSQGLHAEEAPSSEPQSPVAQTSGWPACSTPLPLVSRVKTEQQESDSVQCMPVAKRLWDSGQKEAGGGGNGSRKMAKFSTPDLAANRPHQPPPPQQAPVVAAAQPAVAAGAGQPAGGVAAAGGVVSGPSTSERTSPGTSSAYTSDSPGSYHNEEDEEEDGGEEGMDEQYRQICNMYTMYSMMNVGQTAEKVEALPEQVAPESRNRIRVRQDLASLPAELINQIGNRCHPKLYDEGDPSEKLELVTGTNVYITRAQLMNCHVSAGTRHKVLLRRLLASFFDRNTLANSCGTGIRSSTNDPRRKPLDSRVLHAVKYYCQNFAPNFKESEMNAIAADMCTNARRVVRKSWMPKVKVLKAEDDAYTTFISETGKIEPDMMGVEHGFETASHEGEAGPSAEALQ
B5: C19orf43 (protein, UniProt Q9BQ61 1-176, looked up)
Telomerase RNA component …: MAARGRRAEPQGREAPGPAGGGGGGSRWAESGSGTSPESGDEEVSGAGSSPVSGGVNLFANDGSFLELFKRKMEEEQRQRQEEPPPGPQRPDQSAAAAGPGDPKRKGGPGSTLSFVGKRRGGNKLALKTGIVAKKQKTEDEVLTSKGDAWAKYMAEVKKYKAHQCGDDDKTRPLVK

These molecules were tested on BirA*-FLAG-GATAD1 variants in Flp-In-293 cells (assay: BioID proximity labelling of full-length GATAD1 variants (SILAC)). Conditions: GATAD1 WT vs S102P, forward experiment (label swap performed, sign inverted against the H/L ratio), log2 of normalized H/L ratio, significant proteins only.
Type: cell-based, human
Excerpt: The GATAD1 gene variants were ordered in a pTwist ENTR Kozak vector from Twist Bioscience. The genes were then transferred to a pDEST_pcDNA5_BirA_FLAG_Nterm vector[97] using the Gateway Clonase II system (Thermo Fisher Scientific). The resulting vectors, pEXPR_GATAD1-WT_N-term_BirA_FLAG, pEXPR_GATAD1-S102P_N-term_BirA_FLAG, pEXPR_GATAD1-S102D_N-term_BirA_FLAG, and pEXPR_GATAD1-S102A_N-term_BirA_FLAG, were used to generate tetracycline-inducible stable Flp-In^TM-293 T-REx cells. A 6-well plate was co-transfected with 0.5 µg of the pEXPR plasmid and 1 µg of the pOG44 Flp-recombinase expression vector (Thermo Fisher Scientific) using 4.5 µg of PEI (Polysciences) as a transfection reagent. The following day, the cells were trypsinized and transferred to a 10 cm dish containing DMEM supplemented with 10% FCS and 200 µg/ml hygromycin B (Invivogen) for selection. The cells were cultured for approximately 18 days with media exchange every 3 days until visible colonies were observed. After around 18 days, the colonies were trypsinized and transferred to another 10 cm dish for further characterization and experiments.
Stable Flp-In^TM-293 cell lines expressing GATAD1 variants were cultured using SILAC light (Lys0, Arg0) and SILAC heavy (Lys8, Arg10) media, as explained in the cell culture section. After full labeling, cells were split into 15 cm dishes and were treated with 1 μg/mL tetracycline for 24 h to induce the expression of GATAD1. After the induction period, cells were incubated with 50 μM biotin overnight for proximity biotinylation. As a control, wild-type GATAD1 cells, without biotin or tetracycline addition, were used. Samples were multiplexed, as shown in Supplementary Fig. 41A with both forward and reverse label swap (n = 2). Cells were then lysed in lysis buffer (50 mM Tris-HCl pH 7.5, 150 mM NaCl, 1% Triton X-100, 1 mM EDTA, 1 mM EGTA, 0.1% SDS) with freshly added protease inhibitors and 1% sodium deoxycholate. To digest the excess DNA, 1 μl of Benzonase was added, and the samples were incubated for 20 min at 37 °C. Biotinylated proteins were enriched for 3 h at 4 °C using streptavidin-sepharose beads (GE Cat# 17-5113-01). Beads were pre-washed twice with 0.01% BSA and twice with lysis buffer. After enrichment, the beads were washed one time with lysis buffer, two times with washing buffer (50 mM HEPES-KOH pH 8.0, 100 mM KCl, 10% glycerol, 2 mM EDTA, 0.1% NP-40), and six times with 50 mM ammonium bicarbonate. Beads were resuspended in ammonium bicarbonate, and an on-bead protein digest with 1 μg of trypsin followed overnight. The next day, the digested proteins were transferred to a fresh tube and were incubated with 10 mM DTT for 30 min at 37 °C and with 55 mM iodoacetamide for 20 min at 37 °C in the dark. Samples were desalted with StageTips.
Peptides were separated using reversed-phase liquid chromatography (EASY nLC II 1200, Thermo Fisher Scientific) with self-made C18 microcolumns (20 cm long) packed with ReproSil-Pur C18-AQ 1.9 μm resin (Dr. Maisch, cat# r119.aq.0001). The chromatography system was coupled online to the electrospray ion source (Proxeon) of an Orbitrap Exploris 480 mass spectrometer (Thermo Fisher Scientific). The mobile phase consisted of buffer A (0.1% formic acid and 5% acetonitrile) and buffer B (0.1% formic acid and 80% acetonitrile). Peptides were eluted using a gradient with increasing concentrations of buffer B over 110 minutes, at a flow rate of 250 nl/min. Mass spectrometry data was acquired in data-dependent mode with settings for one full scan (resolution: 60,000; m/z range: 350–1600; normalized AGC target: 300%; maximum injection time: 10 ms), followed by top 20 MS/MS scans using higher-energy collisional dissociation (resolution: 15,000; m/z range: 200–2000; normalized AGC target: 100%; maximum injection time: 120 ms; isolation width: 1.3 m/z; normalized collision energy: 28%).
Raw files were analyzed with MaxQuant, version 2.0.3.0. […]

Molecule	Log2_Ratio.H.L.normalized.WT_S102P_forward
B1	1.703
B2	1.6946
B3	1.288
B4	1.531
B5	2.125

Same assay, conditions: GATAD1 WT vs S102P, forward experiment, normalized H/L ratio, significant proteins only

Molecule	Ratio.H.L.normalized.WT_S102P_forward
B1	0.3071
B2	0.3089
B3	0.4096
B4	0.346
B5	0.2293

Same assay, conditions: GATAD1 WT vs S102P, reverse experiment, log2 of normalized H/L ratio, significant proteins only

Molecule	Log2_Ratio.H.L.normalized.WT_S102P_reverse
B1	1.269
B2	1.162
B3	1.038
B4	1.188
B5	1.257

Same assay, conditions: GATAD1 WT vs S102P, reverse experiment, normalized H/L ratio, significant proteins only

Molecule	Ratio.H.L.normalized.WT_S102P_reverse
B1	2.4103
B2	2.2378
B3	2.0533
B4	2.2785
B5	2.3903
